Experimental data as given in patent JP2016028048A (dated 2016).
Substitutions are numbered along the chain they refer to.

T1: ヒト組織因子経路インヒビター (human TFPI) (human, UniProt P10646 29-304, limits assumed)
T1 construct: Coated on Maxisorp plates (ELISA) or amine-coupled to a CM5 chip (Biacore); also called ヒトTFPI; hTFPI
T1 sequence (looked up): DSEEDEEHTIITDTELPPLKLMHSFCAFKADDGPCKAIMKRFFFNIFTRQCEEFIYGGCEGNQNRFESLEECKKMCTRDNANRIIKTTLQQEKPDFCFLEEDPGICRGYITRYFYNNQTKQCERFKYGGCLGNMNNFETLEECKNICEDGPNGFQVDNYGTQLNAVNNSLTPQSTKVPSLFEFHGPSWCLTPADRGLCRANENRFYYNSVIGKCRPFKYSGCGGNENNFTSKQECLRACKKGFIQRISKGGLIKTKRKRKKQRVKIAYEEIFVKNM

B1: TP-3A4 (Fab, V domains shown)
VH: QVQLVESGGGLVQPGGSLRLSCAASGFTFSSYWMHWVRQAPGKGLEWVSSISYDSSNTYYADSVKGRFTISRDNSKNTLYLQMNSLRAEDTAVYYCARYGGMDYWGQGTLVTVSS
VL: DIELTQPPSVSVAPGQTARISCSGDNLRDKYASWYQQKPGQAPVLVIYSKSERPSGIPERFSGSNSGNTATLTISGTQAEDEADYYCSSYTLNPNLNYVFGGGTKLTVLG
notes: Human Fab (HuCal Gold), made in E. coli TG1
B2: TP-3F1 (Fab, V domains shown)
VH: QVQLVQSGAEVKKPGESLKISCKGSGYSFTDYWIGWVRQMPGKGLEWMGIIQPSDSDTNYSPSFQGQVTISADKSISTAYLQWSSLKASDTAMYYCARFMWWGKYDSGFDVWGQGTLVTVSS
VL: DIELTQPPSVSVAPGQTARISCSGDNIGSYFASWYQQKPGQAPVLVIYDDSNRPSGIPERFSGSNSGNTATLTISGTQAEDEADYYCEGSNVFGGGTKLTVLG
notes: as for B1
B3: TP-3H2 (Fab, V domains shown)
VH: QVQLVESGGGLVQPGGSLRLSCAASGFTFNSYYMSWVRQAPGKGLEWVSNISSSGSNTNYADSVKGRFTISRDNSKNTLYLQMNSLRAEDTAVYYCARVHYGFDFWGQGTLVTVSS
VL: DIELTQPPSVSVAPGQTARISCSGDKLGKYYAYWYQQKPGQAPVLVIYGDSKRPSGIPERFSGSNSGNTATLTISGTQAEDEADYYCSSAAFGSTVFGGGTKLTVLG
notes: as for B1
B4: TP-3E1 (Fab, V domains shown)
VH: QVQLVESGGGLVQPGGSLRLSCAASGFTFSNYAMTWVRQAPGKGLEWVSVISSVGSNTYYADSVKGRFTISRDNSKNTLYLQMNSLRAEDTAVYYCARPTKAGRTWWWGPYMDVWGQGTLVTVSS
VL: DIELTQPPSVSVAPGQTARISCSGDNIGSYYAYWYQQKPGQAPVLVIYDDSNRPSGIPERFSGSNSGNTATLTISGTQAEDEADYYCQSYDSTGLLVFGGGTKLTVLG
notes: as for B1
B5: TP-4A7 (Fab, V domains shown)
VH: QVQLVESGGGLVQPGGSLRLSCAASGFTFRNYAMNWVRQAPGKGLEWVSVISGSSSYTYYADSVKGRFTISRDNSKNTLYLQMNSLRAEDTAVYYCARADLPYMVFDYWGQGTLVTVSS
VL: B4 VL with N26A, I27L, Y30K, Y31F, Y33H, N52E, S89A, T93G, G94L, L96Y
notes: as for B1
B6: TP-3F2 (Fab, V domains shown)
VH: QVQLVESGGGLVQPGGSLRLSCAASGFTFSSYSMHWVRQAPGKGLEWVSGISYSSSFTYYADSVKGRFTISRDNSKNTLYLQMNSLRAEDTAVYYCARALGGGVDYWGQGTLVTVSS
VL: DIELTQPPSVSVAPGQTARISCSGDNLPSKSVYWYQQKPGQAPVLVIYGDNNRPSGIPERFSGSNSGNTATLTISGTQAEDEADYYCQSWTSRPMVVFGGGTKLTVLG
notes: as for B1
B7: TP-2H10 (Fab, V domains shown)
VH: QVQLQQSGPGLVKPSQTLSLTCAISGDSVSSNGAAWGWIRQSPGRGLEWLGFIYRRSKWYNSYAVSVKSRITINPDTSKNQFSLQLNSVTPEDTAVYYCARQDGMGGMDSWGQGTLVTVSS
VL: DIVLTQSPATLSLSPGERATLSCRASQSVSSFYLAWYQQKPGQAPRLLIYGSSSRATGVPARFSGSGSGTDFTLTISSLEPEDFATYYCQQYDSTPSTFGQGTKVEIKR
notes: as for B1
B8: TP-2G5 (Fab, V domains shown)
VH: QVQLQQSGPGLVKPSQTLSLTCAISGDSVSSNSAAWSWIRQSPGRGLEWLGFIYYRSKWYNDYAVSVKSRITINPDTSKNQFSLQLNSVTPEDTAVYYCARHNPDLGFDYWGQGTLVTVSS
VL: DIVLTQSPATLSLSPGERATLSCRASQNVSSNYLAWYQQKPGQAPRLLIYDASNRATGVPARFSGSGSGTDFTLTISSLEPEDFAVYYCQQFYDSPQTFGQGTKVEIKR
notes: as for B1
B9: TP-3G1 (Fab, V domains shown)
VH: QVQLQQSGPGLVKPSQTLSLTCAISGDSVSSNSGGWGWIRQSPGRGLEWLGLIYYRSKWYNAYAVSVKSRITINPDTSKNQFSLQLNSVTPEDTAVYYCARYLGSNFYVYSDVWGQGTLVTVSS
VL: DIQMTQSPSSLSASVGDRVTITCRASQGISSYLHWYQQKPGKAPKLLIYGASTLQSGVPSRFSGSGSGTDFTLTISSLQPEDFATYYCQQQNGYPFTFGQGTKVEIKR
notes: as for B1
B10: TP-3D3 (Fab, V domains shown)
VH: QVQLVESGGGLVQPGGSLRLSCAASGFTFSSYASWVRQAPGKGLEWVSGISGDGSNTHYADSVKGRFTISRDNSKNTLYLQMNSLRAEDTAVYYCARYDNFYFDVWGQGTLVTVSS
VL: DIELTQPPSVSVAPGQTARISCSGDSLGSKFAHWYQQKPGQAPVLVIYDDSNRPSGIPERFSGSNSGNTATLTISGTQAEDEADYYCSTYTSRSHSYVFGGGTKLTVLG
notes: as for B1
B11: TP-2G7 (Fab, V domains shown)
VH: QVQLVESGGGLVQPGGSLRLSCAASGFTFNSYAMSWVRQAPGKGLEWVSNISSNSSNTYYADSVKGRFTISRDNSKNTLYLQMNSLRAEDTAVYYCARKGGGEHGFFPSDIWGQGTLVTVSS
VL: DIELTQPPSVSVAPGQTARISCSGDNLGTYYVHWYQQKPGQAPVLVIYGDNNRPSGIPERFSGSNSGNTATLTISGTQAEDEADYYCQTYDSNNESIVFGGGTKLTVLG
notes: as for B1
B12: TP-3C2 (Fab, V domains shown)
VH: QVQLQQSGPGLVKPSQTLSLTCAISGDSVSSSSAAWSWIRQSPGRGLEWLGMIYYRSKWYNHYAVSVKSRITINPDTSKNQFSLQLNSVTPEDTAVYYCARGGSGVMDVWGQGTLVTVSS
VL: DIQMTQSPSSLSASVGDRVTITCRASQSITNYLNWYQQKPGKAPKLLIYDVSNLQSGVPSRFSGSGSGTDFTLTISSLQPEDFAVYYCQQYSGYPLTFGQGTKVEIKR
notes: as for B1
B13: TP-3C3 (Fab, V domains shown)
VH: QVQLQQSGPGLVKPSQTLSLTCAISGDSVSSNSAAWGWIRQSPGRGLEWLGVIYYRSKWYNDYAVSVKSRITINPDTSKNQFSLQLNSVTPEDTAVYYCARARAKKSGGFDYWGQGTLVTVSS
VL: B12 VL with T30N, N31P, D50A, V51A, Y91L, S92D, G93N, Y94R, P95S, L96I
notes: as for B1
B14: TP-3G3 (Fab, V domains shown)
VH: QVQLVESGGGLVQPGGSLRLSCAASGFTFSSYSMSWVRQAPGKGLEWVSSISSSSSNTYYGDSVKGRFTISRDNSKNTLYLQMNSLRAEDTAVYYCARMHYKGMDIWGQGTLVTVSS
VL: B12 VL with S28N, T30H, N31S, Y32H, V51A, N53S, S92Y, G93D
notes: as for B1
B15: TP-2A6 (Fab, V domains shown)
VH: QVQLVESGGGLVQPGGSLRLSCAASGFTFSRYAMSWVRQAPGKGLEWVSSIISSSSETYYADSVKGRFTISRDNSKNTLYLQMNSLRAEDTAVYYCARLMGYGHYYPFDYWGQGTLVTVSS
VL: DIELTQPPSVSVAPGQTARISCSGDKIGSKYVYWYQQKPGQAPVLVIYDSNRPSGIPERFSGSNSGNTATLTISGTQAEDEADYYCASYDSIYSYWVFGGGTKLTVLG
notes: as for B1
B16: TP-2A5.1 (Fab, V domains shown)
VH: QVQLVESGGGLVQPGGSLRLSCAASGFTFSSYGSWVRQAPGKGLEWVSVISGSGSSTYYADSVKGRFTISRDNSKNTLYLQMNSLRAEDTAVYYCARVNISTHFDVWGQGTLVTVSS
VL: DIELTQPPSVSVAPGQTARISCSGDNIPEKYVHWYQQKPGQAPVLVIHGDNNRPSGIPERFSGSNSGNTATLTISGTQAEDEADYYCQSFDAGSYFVFGGGTKLTVLG
notes: as for B1
B17: TP-3A2 (Fab, V domains shown)
VH: QVQLVESGGGLVQPGGSLRLSCAASGFTFSNYYLSWVRQAPGKGLEWVSGISYNGSSTNYADSVKGRFTISRDNSKNTLYLQMNSLRAEDTAVYYCARMWRYSLGADSWGQGTLVTVSS
VL: DIELTQPPSVSVAPGQTARISCSGDNIGSRYAYWYQQKPGQAPVVVIYDDSDRPSGIPERFSGSNSGNTATLTISGTQAEDEADYYCAAYTFYARTVFGGGTKLTVLG
notes: as for B1
B18: TP-3A3 (Fab, V domains shown)
VH: QVQLVESGGGLVQPGGSLRLSCAASGFTFNNNAISWVRQAPGKGLEWVSAINSSSSSTSYADSVKGRFTISRDNSKNTLYLQMNSLRAEDTAVYYCARGHHRGHSWASFIDYWGQGTLVTVSS
VL: DIELTQPPSVSVAPGQTARISCSGDNIGSKYVHWYQQKPGQAPVVVIYEDSDRPSGIPERFSGSNSGNTATLTISGTQAEDEADYYCQSWDKSEGYVFGGGTKLTVLG
notes: as for B1
B19: TP-3B3 (Fab, V domains shown)
VH: QVQLVESGGGLVQPGGSLRLSCAASGFTFSSYGMHWVRQAPGKGLEWVSNISYMGSNTNYADSVKGRFTISRDNSKNTLYLQMNSLRAEDTAVYYCARGLFPGYFDYWGQGTLVTVSS
VL: DIELTQPASVSVAPGQTARISCSGDNLRSKYAHWYQQKPGQAPVLVIYGDNNRPSGIPERFSGSNSGNTATLTISGTQAEDEADYYCSAYAMGSSPVFGGGTKLTVLG
notes: as for B1
B20: TP-2G9 (Fab, V domains shown)
VH: QVQLVESGGGLVQPGGSLRLSCAASGFTFNSYAMTWVRQAPGKGLEWVSAIKSDGSNTYYADSVKGRFTISRDNSKNTLYLQMNSLRAEDTAVYYCARNDSGWFDVWGQGTLVTVSS
VL: DIALTQPASVSGSPGQSITISCTGTSSDLGGFNTVSWYQQHPGKAPKLMIYSVSSRPSGVSNRFSGSKSGNTASLTISGLQAEDEADYYCQSYDLNNLVFGGGTKLTVLG
notes: as for B1
B21: TP-3C1 (Fab, V domains shown)
VH: B6 VH
VL: B20 VL
notes: Human Fab (HuCal Gold), made in E. coli TG1; VL is the same entry as TP-2G9, VH the same entry as TP-3F2 (so in the source)

biological target: T1, ヒト組織因子経路インヒビター (human TFPI); assay: ELISA, Fab in bacterial lysate on human TFPI-coated plate

Row | Binder | binding result
1 | B1 | binds
2 | B2 | binds
3 | B3 | binds
4 | B4 | binds
5 | B5 | binds
6 | B6 | binds
7 | B7 | binds
8 | B8 | binds
9 | B9 | binds
10 | B10 | binds
11 | B11 | binds
12 | B12 | binds
13 | B13 | binds
14 | B14 | binds
15 | B15 | binds
16 | B16 | binds
17 | B17 | binds
18 | B18 | binds
19 | B19 | binds
20 | B20 | binds
21 | B21 | binds
